Where “and” joins values, the source holds several entries; their conditions need not be identical. Equal entries are not always repeated. Where two headings read alike, the source gives them in different places.
How the values were obtained:
COVID-19 (SARS-CoV-2) = settings: cited from earlier work; for Mean Days to Discharge (**median): Lopinavir/Ritonavir cohort
[1] = system: severe and critical COVID-19 pneumonia (SARS-CoV-2); settings: for deaths / mortality: data cutoff May 1, 2020; for ALT after lenzilumab / AST after lenzilumab: individual patients: peak (patient 4) or at discharge (patients 5, 8)
[2] = system: COVID-19 associated chronic ARDS (SARS-CoV-2); type: in vivo, human; settings: one patient
Procedure: Hospitalized subject with confirmed COVID-19 pneumonia and established risk factors for poor outcomes was treated in the ICU for 12 weeks using standard supportive care for chronic acute respiratory distress syndrome (ARDS). […] Patient characteristics, clinical and laboratory outcomes, and adverse events were recorded through duration of hospitalization.
Over the course of their ICU stay, the patient developed acute respiratory distress syndrome (ARDS).

human GM-CSF = human GM-CSF (Homo sapiens, UniProt P04141); test: Binding of lenzilumab to GM-CSF
[3] = system: severe COVID-19 pneumonia (SARS-CoV-2); settings: for Incidence of IMV / Incidence of IMV and/or death / Incidence of death / Incidence of clinical improvement: n = 12
[4] = Four completed clinical trials of lenzilumab (healthy volunteers, asthma, rheumatoid arthritis, CMML); type: in vivo, human; settings: 113 individuals in 4 completed trials
[5] = 12 patients (same cohort in Examples 8 and 10)
[6] = individual patient narratives, listed as lenzilumab
[7] = one patient, pretreatment vs 48 hours post-lenzilumab
[8] = patient 5 at discharge, unit not given

Sequence of human GM-CSF (P04141 18-144): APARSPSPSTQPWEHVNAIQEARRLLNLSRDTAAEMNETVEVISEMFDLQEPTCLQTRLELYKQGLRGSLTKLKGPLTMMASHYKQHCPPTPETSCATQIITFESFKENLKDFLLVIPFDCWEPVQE

lopinavir and ritonavir [Lopinavir/Ritonavir]
Mean Days to Discharge (**median) (COVID-19 (SARS-CoV-2)): 13** days
Mean Days to Discharge (**median) (COVID-19 (SARS-CoV-2); listed as Lopinavir-Ritonavir): 13 days

Tocilizumab: anti-IL6 receptor monoclonal antibody; IL-6 antagonist
Mean Days to Discharge (COVID-19 (SARS-CoV-2); Tocilizumab cohort): 13.5 days

B1: Lenzilumab: Humaneered recombinant monoclonal antibody, derived from mouse antibody LMM102, targeting and neutralizing human GM-CSF (antibody, chains of the INN, looked up, V domains shown)
VH: QVQLVQSGAEVKKPGASVKVSCKASGYSFTNYYIHWVRQAPGQRLEWMGWINAGNGNTKYSQKFQGRVTITRDTSASTAYMELSSLRSEDTAVYYCVRRQRFPYYFDYWGQGTLVTVSS
VL: EIVLTQSPATLSVSPGERATLSCRASQSVGTNVAWYQQKPGQAPRVLIYSTSSRATGITDRFSGSGSGTDFTLTISRLEPEDFAVYYCQQFNKSPLTFGGGTKVEIK
hemoglobin on day 6 in one patient ([1]; 10.3 on day 0, renal biopsy day 2, subcapsular hematoma): 7.9 g/dL
median time to discharge post-lenzilumab ([1]; 11 discharged patients, range 3-19): 5 days
patients with clinical improvement of at least 2 points on the 8-point ordinal scale ([1]; 11 of 12 patients): 92% and 91.7%
hematological toxicity ([1]; 12 patients): not associated with any hematological toxicity
adverse events attributable to lenzilumab [1, 5]: no treatment-emergent adverse events attributable to lenzilumab
infusion reactions [1, 5]: no infusion reactions
median time to a 2-point clinical improvement ([1]; 95% CI 2-7 days): 5 days
time to resolution of fever in patients febrile at baseline ([1]; after lenzilumab administration): ≤ 48 h
Lymphocytes 1st Lab, summary of patients 1-5 ([1]; average of 5 patients): 1.044
Lymphocytes Last Value, summary of patients 1-5 ([1]; average of 5 patients): 1.422
Lymphocytes Low, summary of patients 1-5 ([1]; average of 5 patients): 0.912
Neutrophils 1st Lab, unlabelled summary line of patients 1-5 ([1]; average of 5 patients): 3.892
Neutrophils High, summary of patients 1-5 ([1]; average of 5 patients): 6.008
Neutrophils Last Value, summary of patients 1-5 ([1]; average of 5 patients): 3.98
mean IL-6 on day 3 ([1]; baseline 26.8 pg/mL, p=0.035): 16.1 pg/mL
mean CRP on day 3 ([1]; baseline 137.3 mg/L, p=0.040): 51.2 mg/L
mean absolute lymphocyte count day 3 ([1]; baseline 0.89, p=0.107): 1.14e+09 L⁻¹
mean absolute neutrophil count day 3 ([1]; baseline 5.1, p=0.27): 4.8e+09 L⁻¹
mean hemoglobin day 3 ([1]; baseline 12.9, p=0.89): 11.4 g/dL
mean temperature at day 3 ([1]; baseline 37.95, p=0.023): 36.97
proportion of patients with SpO2/FiO2<315 at end of observation ([1]; baseline 67%, p=0.00015): 8%
mean platelet count day 3 ([1]; baseline 217.7, p=0.001): 2.618e+11 L⁻¹
deaths / mortality [1]: no reported mortality
deaths / mortality ([1]; listed as lenzilumab): no deaths
patients discharged on home oxygen ([1]; five patients): 42%
ferritin after lenzilumab ([1]; individual patient narratives): 571 µg/L
CRP after lenzilumab ([1]; individual patient narratives, dates in text): 91 mg/L and 46 mg/L
D-dimer after lenzilumab [1, 6]: 1507 ng/mL and 1759 ng/mL and 1802 ng/mL
ferritin after lenzilumab [1, 6]: 1143 µg/L
IL-6 post Rx ([1]; individual patients, data to Apr. 13, 2020): 4.6 pg/mL
ALT after lenzilumab [1]: 175
AST after lenzilumab [1]: 96
ALT after lenzilumab ([1]; listed as lenzilumab): 169 and 137
AST after lenzilumab ([1]; listed as lenzilumab): 203 and 118
patients whose SpO2/FiO2 improved to >315 on day 1 ([1]; of 8 patients <315 at baseline): four
patients with 2-point improvement ([1]; of 12): 1 patients
patients with ≥3-point improvement ([1]; of 12): 10 patients
patients requiring invasive mechanical ventilation ([1]; one patient): 8.3%
cytokines of the cytokine storm (G-CSF, MDC, GM-CSF, IL-1α, IFN-γ, IL-7, FLT-3L, IL-1rα, IL-6, IL-12p70) [1, 7]: significant reduction
IL-6 after lenzilumab ([1]; patient 4, April 8): 95.4 pg/mL
LDH after lenzilumab ([1]; patient 4, April 8): 388 U/L
IL-6 after lenzilumab [1, 8]: 4.6
ferritin after lenzilumab [1, 8]: 1223
hemoglobin at last study observation, same patient ([1]; patient with subcapsular hematoma): 9.3 g/dL
patients requiring mechanical invasive ventilation ([1]; patients 1-5): None
time to clinical two-point improvement faster than comparators ([1]; vs Remdesivir, Lopinavir-Ritonavir (and Tocilizumab)): more than 50%
lymphopenia post lenzilumab [2]: appeared to improve
infusion-related or systemic side effects ([2]; 600 mg IV every 8 hours, 3 doses): No infusion-related or systemic side effects
binding affinity (human GM-CSF): picomolar range
patients free of ARDS (SpO2/FiO2 of 315 or higher) by end of observation ([3]; 11 patients, P=0.43): 92%
mean SpO2/FiO2 over time post-treatment vs untreated ([3]; P<0.001): statistically significant difference
CRP reduction (mean) ([3]; after 4 days, control −0.95, P .01): 135.8
IL-6 concentration on day 4 ([3]; baseline 28.6 pg/mL, P=0.02): 8.52 pg/mL
mean CRP after treatment ([3]; baseline 172.2 mg/L, 4 days post-treatment, P=0.04): 36.4 mg/L
mean absolute neutrophil count day 4 ([3]; baseline 5.1, P=0.27): 4.8e+09 L⁻¹
mean hemoglobin day 4 ([3]; baseline 12.9, P=0.89): 11.4 g/dL
IL-6 reduction ([3]; baseline vs day 4): 20.1
ALC increase ([3]; control 0.03, P .04): 0.46 × 10*9/L
Mean temperature reduction ([3]; control 0.459, P .02): 1.075
PLT increase (mean platelet count from baseline) ([3]; control 63.2, P .61): 52.5
Ventilator-free survival vs untreated group ([3]; log-rank x^2=3.67, P=0.06): favored
Incidence of IMV [3]: (8%)
Incidence of IMV and/or death [3]: (8%)
Incidence of death [3]: (8%)
Incidence of IMV and/or death ([3]; P .07): 1 patients
Incidence of IMV ([3]; P .10): 1 patients
Incidence of death ([3]; P .43): 1 patients
Incidence of clinical improvement ([3]; P .43 vs control): 11 patients
Incidence of clinical improvement ([3]; at least 2 points on 8-point scale): (92%)
Incidence of clinical improvement ([3]; at least 2 points on 8-point scale, listed as lenzilumab): 92%
Incidence of IMV and/or death ([3]; listed as lenzilumab): 8%
cytokines and chemokines involved in the cytokine storm [3, 7]: significant reduction
Days to resolution of fever ([3]; range 1-6, P .22): 2 days
Days to clinical improvement (median) ([3]; range 1-14, control 11, P .006): 5 days
Days to discharge from hospital (median) ([3]; range 3-19, control 11, P .008): 5 days
Increase in mean absolute lymphocyte counts ([3]; untreated 0.03, P=0.04): 4.6e+08 L⁻¹
tolerability, frequency and severity of adverse events [4]: very well tolerated

From US20230109208A1 (priority 2020, published 2023)
